Experimental data: article PMC7486400, “Allosteric coupling between α-rings of the 20S proteasome” (Nature Communications, 2020)
Where “and” joins values, the source holds several entries; their conditions need not be identical. Identical values can stand only once.

B1: Thermoplasma acidophilium 20S proteasome α-subunit, wild type, full-length (natural protein, UniProt P25156 1-233, looked up)
chain: MQQGQMAYDRAITVFSPDGRLFQVEYAREAVKKGSTALGMKFANGVLLISDKKVRSRLIEQNSIEKIQLIDDYVAAVTSGLVADARVLVDFARISAQQEKVTYGSLVNIENLVKRVADQMQQYTQYGGVRPYGVSLIFAGIDQIGPRLFDCDPAGTINEYKATAIGSGKDAVVSFLEREYKENLPEKEAVTLGIKALKSSLEEGEELKAPEIASITVGNKYRIYDQEEVKKFL
notes: 20S proteasome α-subunit of Thermoplasma acidophilum, full-length; For the asymmetric CP the wild-type ring was co-expressed from α-His and α-MBP (both C-terminal, TEV site before the tag); All tags were removed after final purification, so the subunit is untagged in the EM samples; All these forms are kept as one molecule here; also called αWT; αwt
B2: Thermoplasma acidophilium 20S proteasome α-subunit R28L (natural protein, UniProt P25156 1-233, looked up)
chain: MQQGQMAYDRAITVFSPDGRLFQVEYALEAVKKGSTALGMKFANGVLLISDKKVRSRLIEQNSIEKIQLIDDYVAAVTSGLVADARVLVDFARISAQQEKVTYGSLVNIENLVKRVADQMQQYTQYGGVRPYGVSLIFAGIDQIGPRLFDCDPAGTINEYKATAIGSGKDAVVSFLEREYKENLPEKEAVTLGIKALKSSLEEGEELKAPEIASITVGNKYRIYDQEEVKKFL
notes: also called proximal α-ring of PAN-αWTββα_(K66A)
B3: Thermoplasma acidophilium 20S proteasome α-subunit K66A (natural protein, UniProt P25156 1-233, looked up)
chain: MQQGQMAYDRAITVFSPDGRLFQVEYAREAVKKGSTALGMKFANGVLLISDKKVRSRLIEQNSIEAIQLIDDYVAAVTSGLVADARVLVDFARISAQQEKVTYGSLVNIENLVKRVADQMQQYTQYGGVRPYGVSLIFAGIDQIGPRLFDCDPAGTINEYKATAIGSGKDAVVSFLEREYKENLPEKEAVTLGIKALKSSLEEGEELKAPEIASITVGNKYRIYDQEEVKKFL
notes: 20S proteasome α-subunit of Thermoplasma acidophilum, full-length, K66A; In the EM samples the K66A ring (distal ring of the asymmetric CP) is untagged; also called α_(K66A); distal α-ring; source: E. coli BL21(DE3), purified (strep-trap column)

Legend:
[1] = biological target: in vitro assembled symmetric wild-type Thermoplasma acidophilium 20S core particle αWTββαWT (Thermoplasma acidophilium) (UniProt P25156)
[2] = biological target: in vitro assembled asymmetric Thermoplasma acidophilium 20S core particle αWTββα_(K66A) (Thermoplasma acidophilium) (UniProt P25156)
[3] = biological target: in vitro assembled symmetric wild-type Thermoplasma acidophilium 20S core particle αWTββαWT (Thermoplasma acidophilium) (UniProt P25156); remark: listed apart in the source
[4] = biological target: in vitro assembled asymmetric Thermoplasma acidophilium 20S core particle αWTββα_(K66A) (Thermoplasma acidophilium) (UniProt P25156); remark: listed apart in the source
[5] = biological target: B3; test: in vitro reconstitution with two-step affinity purification; two types of purified α-subunits and β-subunit mixed 1:2:1 in Tris buffer pH 7.5, 1 h at 37 °C; strep-trap column (α K66A), TEV cleavage of all tags except MBP, then MBP column (wild-type α); conditions: both partners purified
[6] = biological target: the molecule itself; test: negative stain EM; α-subunits expressed in E. coli and purified alone; Supplementary Fig. 1c–i (panel c is negative stain EM; the method of the other panels was not shown)
[7] = biological target: the molecule itself; test: cryo-EM structure; single-particle cryo-EM of asymmetric CP with one activator bound, with or without substrate (LFP, GFP-ssrA), C7 symmetry applied, about 3 Å; PAN complexes with nucleotide
[8] = biological target: B2; test: as above; conditions: both partners purified
[9] = biological target: B1; test: as above; conditions: both partners purified

With “PA26 (Trypanosoma brucei) with the point mutation V230F (natural protein)” the Kcat (1/min) of LFP peptidase activity, CP with PA26 (doubly capped) [1] was 0.839 s⁻¹, the Vmax (μM/min) of LFP peptidase activity, CP with PA26 (doubly capped) [1] was 805 µM/min and the Kcat (1/min) of LFP peptidase activity, CP with PA26 (singly capped) [2] was 0.426 s⁻¹. For the same molecule, the Vmax (μM/min) of LFP peptidase activity, CP with PA26 (singly capped) [2] was 409 µM/min.

“PA26PANc: PA26 (Trypanosoma brucei) with E102A and the last eight C-terminal residues replaced with the last eight C-terminal residues of PAN” showed a Kcat (1/min) of LFP peptide degradation, 16 nM CP with 112 nM activator (doubly capped) [3] of 0.207 s⁻¹, a Vmax (μM/min) of LFP peptide degradation, 16 nM CP with 112 nM activator (doubly capped) [3] of 199 µM/min and a Kcat (1/min) of LFP peptide degradation, 16 nM CP with 112 nM activator (singly capped) [4] of 0.24 s⁻¹. The Vmax (μM/min) of LFP peptide degradation, 16 nM CP with 112 nM activator (singly capped) [4] was 230 µM/min.

For B1, the binding result [5] was “binds” and the “stoichiometry N” value [6] was 7 and 14.

B2: binds [7].

B3: binds [7].

B4: Thermoplasma acidophilium 20S proteasome β-subunit, pro-peptide truncated (residues 2–8 removed) (natural protein)
chain: TTTVGITLKDAVIMATERRVTMENFIMHKNGKKLFQIDTYTGMTIAGLVGDAQVLVRYMKAELELYRLQRRVNMPIEAVATLLSNMLNQVKYMPYMVQLLVGGIDTAPHVFSIDAAGGSVEDIYASTGSGSPFVYGVLESQYSEKMTVDEGVDLVIRAISAAKQRDSASGGMIDVAVITRKDGYVQLPTDQIESRIRKLGLIL
notes: 20S proteasome β-subunit of Thermoplasma acidophilum; residues 2–8 truncated to simulate the autoproteolytic removal of the N-terminal pro-peptide; A protease (TEV) site stands before the tag; Tags were removed after final purification of the assembled CP; also called β monomers; source: E. coli BL21(DE3), purified (Ni-NTA)
B4: binds [8]; binds [9]; binds [5].
